Our source for the Kd values is PMC10786891, “Massively parallel profiling of RNA-targeting CRISPR-Cas13d”.

Residue numbers refer to the chain shown, from its start. Names and notes keep the numbering of the source.

Sequences and labels used below:
T1: EsCas13d, nuclease-dead (Eubacterium siraeum, UniProt B0MS50, R295A;H300A;R849A;H854A)
T1 sequence: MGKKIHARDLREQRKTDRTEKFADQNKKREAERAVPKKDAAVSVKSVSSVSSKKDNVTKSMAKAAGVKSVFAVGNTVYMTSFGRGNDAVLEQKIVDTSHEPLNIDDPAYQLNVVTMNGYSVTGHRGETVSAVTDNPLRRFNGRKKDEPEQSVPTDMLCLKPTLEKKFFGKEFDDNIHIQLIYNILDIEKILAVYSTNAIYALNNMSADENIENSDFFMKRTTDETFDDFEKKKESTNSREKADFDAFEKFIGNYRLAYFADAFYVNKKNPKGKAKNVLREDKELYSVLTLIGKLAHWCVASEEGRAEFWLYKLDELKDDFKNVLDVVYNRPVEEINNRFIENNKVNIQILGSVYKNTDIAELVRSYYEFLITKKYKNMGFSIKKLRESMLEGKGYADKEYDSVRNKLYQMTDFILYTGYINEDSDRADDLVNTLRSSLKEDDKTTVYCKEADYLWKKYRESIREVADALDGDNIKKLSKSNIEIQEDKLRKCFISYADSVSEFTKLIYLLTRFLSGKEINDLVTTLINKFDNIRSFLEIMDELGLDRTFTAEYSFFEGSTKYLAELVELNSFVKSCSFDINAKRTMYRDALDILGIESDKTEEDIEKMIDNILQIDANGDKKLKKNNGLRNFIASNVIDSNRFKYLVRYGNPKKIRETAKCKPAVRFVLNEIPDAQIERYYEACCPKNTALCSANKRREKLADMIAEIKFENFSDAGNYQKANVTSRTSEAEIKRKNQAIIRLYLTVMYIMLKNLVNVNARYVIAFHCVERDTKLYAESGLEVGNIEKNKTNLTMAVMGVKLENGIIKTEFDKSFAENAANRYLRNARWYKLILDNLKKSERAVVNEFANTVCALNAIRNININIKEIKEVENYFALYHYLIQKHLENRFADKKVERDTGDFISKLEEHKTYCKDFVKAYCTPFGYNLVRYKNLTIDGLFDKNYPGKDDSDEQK

B1: target 1 U3A,U11C (mixed)
RNA 1: CACCCGUGCAAAAAUGCAGGGGUCUAAAACUGAGCGGAUAACCUCUCUAUGG
RNA 2: GGGAAUGGAUCCACAUCUACGAAUUCGUACCAUAGAGAGGCUAUCCGCACACCGAGAUCGGAAGAGCACACGU
B2: target 1 G12U,A18U (mixed)
RNA 1: B1 RNA 1
RNA 2: B1 RNA 2 with A34U, G40U, C41U, A49U
B3: target 1 G15U,G17A (mixed)
RNA 1: B1 RNA 1
RNA 2: B1 RNA 2 with G35A, G37U, C41U, A49U
B4: target 1 insG 3' of 10,insG 3' of 10 (mixed)
RNA 1: B1 RNA 1
RNA 2: GGGAAUGGAUCCACAUCUACGAAUUCGUACCAUAGAGAGGUUGGAUCCGCUCACCGAGAUCGGAAGAGCACACGU
B5: target 3 insU 3' of 22,insU 3' of 6 (mixed)
RNA 1: CACCCGUGCAAAAUUGCAGGGGUCUAAAACGACCUGAAUAUUUCAGAUCAAA
RNA 2: GGGAAUGGAUCCACAUCUACGAAUUCGUUUUUUGAUCUGAAAUAUUCUAGGUCUGCAGAUCGGAAGAGCACACGU
B6: target 3 insC 3' of 9,insC 3' of 3 (mixed)
RNA 1: B5 RNA 1
RNA 2: GGGAAUGGAUCCACAUCUACGAAUUCGUUUUUGAUCUGAAAUACUUCAGGCUCUGCAGAUCGGAAGAGCACACGU
B7: target 3 insG 3' of 8,insG 3' of 6 (mixed)
RNA 1: B5 RNA 1
RNA 2: B6 RNA 2 with C44U, U45G, A48G, G49A, C51G
B8: target 3 insG 3' of 6,insA 3' of 6 (mixed)
RNA 1: B5 RNA 1
RNA 2: B6 RNA 2 with C44U, U46C, C47G, G49A, C51G
B9: target 3 U7C (mixed)
RNA 1: B5 RNA 1
RNA 2: GGGAAUGGAUCCACAUCUACGAAUUCGUUUUUGAUCUGAAAUAUCCAGGUCUGCAGAUCGGAAGAGCACACGU
B10: target 3 insC 3' of 13,insA 3' of 2 (mixed)
RNA 1: B5 RNA 1
RNA 2: B6 RNA 2 with A40C, U42A, A43U, C44A, C51U, U52A
B11: target 3 C16U,U22A (mixed)
RNA 1: B5 RNA 1
RNA 2: B9 RNA 2 with U30A, C36U, C45U
B12: target 3 C1G,A5U (mixed)
RNA 1: B5 RNA 1
RNA 2: B9 RNA 2 with C45U, A47U, C51G
B13: target 3 insU 3' of 5,insA 3' of 4 (mixed)
RNA 1: B5 RNA 1
RNA 2: B6 RNA 2 with C44U, U46C, C47A, A48U, G50A, C51G
B14: target 3 insC 3' of 7,insA 3' of 3 (mixed)
RNA 1: B5 RNA 1
RNA 2: B6 RNA 2 with C44U, U46C, C51A
B15: target 3 insC 3' of 9,insU 3' of 5 (mixed)
RNA 1: B5 RNA 1
RNA 2: B6 RNA 2 with G49U, C51G
B16: target 3 C1U,G3A (mixed)
RNA 1: B5 RNA 1
RNA 2: B9 RNA 2 with C45U, G49A, C51U
B17: target 3 C6G,U7A (mixed)
RNA 1: B5 RNA 1
RNA 2: B9 RNA 2 with C45A, C46G
B18: target 3 insC 3' of 15,insC 3' of 11 (mixed)
RNA 1: B5 RNA 1
RNA 2: GGGAAUGGAUCCACAUCUACGAAUUCGUUUUUGAUCUCGAAACUAUUCAGGUCUGCAGAUCGGAAGAGCACACGU
B19: target 3 U2G,U20C (mixed)
RNA 1: B5 RNA 1
RNA 2: B9 RNA 2 with U32C, C45U, U50G
B20: target 3 insU 3' of 9,insG 3' of 7 (mixed)
RNA 1: B5 RNA 1
RNA 2: B6 RNA 2 with C44U, C47G, A48C, G49A, C51G
B21: target 3 insG 3' of 5,insA 3' of 2 (mixed)
RNA 1: B5 RNA 1
RNA 2: B6 RNA 2 with C44U, U46C, C47A, A48G, C51U, U52A
B22: target 3 U2C,U8G (mixed)
RNA 1: B5 RNA 1
RNA 2: B9 RNA 2 with U44G, C45U, U50C
B23: target 3 insU 3' of 16,insG 3' of 2 (mixed)
RNA 1: B5 RNA 1
RNA 2: B6 RNA 2 with G38U, A39G, U42A, A43U, C44A, C51U, U52G
B24: target 3 del6 (mixed)
RNA 1: B5 RNA 1
RNA 2: GGGAAUGGAUCCACAUCUACGAAUUCGUUUUUGAUCUGAAAUAUUAGGUCUGCAGAUCGGAAGAGCACACGU
B25: target 3 insG 3' of 2,insG 3' of 2 (mixed)
RNA 1: B5 RNA 1
RNA 2: B6 RNA 2 with C44U, U46C, C47A, A48G, G50U, C51G, U52G
B26: target 3 insU 3' of 22,insC 3' of 22 (mixed)
RNA 1: B5 RNA 1
RNA 2: B18 RNA 2 with U32C, G33U, A34U, U35G, C36A, G39U, A40G, C43A
B27: target 3 C1A,U7C (mixed)
RNA 1: B5 RNA 1
RNA 2: B9 RNA 2 with C51A
B28: target 3 insA 3' of 15,insU 3' of 3 (mixed)
RNA 1: B5 RNA 1
RNA 2: B6 RNA 2 with G38A, A39G, U42A, A43U, C44A, C51U
B29: target 3 insU 3' of 11,insG 3' of 5 (mixed)
RNA 1: B5 RNA 1
RNA 2: B6 RNA 2 with A43U, C44A, C51G
B30: target 3 U2G,U22C (mixed)
RNA 1: B5 RNA 1
RNA 2: B9 RNA 2 with U30C, C45U, U50G
B31: target 3 insA 3' of 21,insC 3' of 3 (mixed)
RNA 1: B5 RNA 1
RNA 2: B5 RNA 2 with U32A, U48A, A49G, G51C
B32: target 3 U7A,A18G (mixed)
RNA 1: B5 RNA 1
RNA 2: B9 RNA 2 with A34G, C45A

The series has as its target T1, EsCas13d, nuclease-dead. Put plainly: crRNA (strand 1, pre-loaded); Mg2+; 40 mM Tris-HCl pH 7.5, 150 mM NaCl, 6 mM MgCl2, 1 mM DTT, 0.1% Tween-20, 0.2 mg/ml BSA; 25 C; 10 min per concentration, then washed. The note with it: tags: His6-TwinStrep-SUMO cleaved; N-terminal SNAP kept (SNAP-Surface 488); label: 3' end held by stalled T7 RNA polymerase.
For B1, binding was put at a Kd of 10.3 ± 1.2 nM.
As to B2, binding was put at a Kd of 44 ± 10 nM.
For B3, binding was characterised by a dissociation constant (Kd) of 53 ± 5 nM.
For B4 the value was 21.8 ± 2.2 nM; for B5, 27.5 ± 3.7 nM; for B6, 88 ± 24.5 nM.
For B7 the value was 31.6 ± 2.7 nM; for B8, 8.8 ± 0.75 nM; for B9, 56 ± 7 nM.
As for B10, the figure is 70 ± 13 nM; as for B11, 70 ± 11 nM.
Turning to B12, the Kd (as a rule, the concentration at which binding is half-saturated) turned out to be 10.1 ± 1.55 nM.
For B13 the value was 9.9 ± 1.8 nM.
B14 registered a dissociation constant Kd of 68 ± 14 nM.
As for B15, the figure is 76.5 ± 12.5 nM.
For B16 the value was 45 ± 10.5 nM; for B17, 48.5 ± 5.5 nM; for B18, 46 ± 4 nM.
As for B19, the figure is 50 ± 19 nM; as for B20, 84.5 ± 18.5 nM.
B21 came in with a Kd of 39 ± 6 nM.
As for B22, the figure is 95.5 ± 20.5 nM; as for B23, 16.1 ± 1.9 nM; as for B24, 38.4 ± 3.55 nM.
B25 registered a Kd of 22 ± 2.05 nM.
For B26 the value was 39.5 ± 6 nM; for B27, 100 ± 40 nM; for B28, 59.5 ± 12.5 nM.
As for B29, the figure is 104 ± 29 nM; as for B30, 19.8 ± 3.55 nM; as for B31, 35 ± 5 nM.
As for B32, the figure is 49 ± 6 nM.
